Reference: PMC11169542, “A probe for NIR-II imaging and multimodal analysis of early Alzheimer’s disease by targeting CTGF” (Nature Communications, 2024)
Ends that are not written are not given here.

Experiment: Monitoring DGC in blood serum by ex vivo NIR-II imaging
Parameters: species or system C57BL/6J mice
Settings: NIR-II imaging and ICP-MS quantification of DGC in mouse serum after tail vein injection
Procedure: The C57BL/6J mice (male and female) were injected with DGC (20 mg/kg) through the tail vein (n = 3). After injection, the blood samples were collected at 0.083, 0.25, 0.5, 1, 2, 4, 8, 10, 12, 24, and 48 h through the posterior orbital vein of the mice. The serum was obtained by centrifugation (1200×g for 5 min) to remove blood cells. The serum samples were observed through the In vivo Master (Grand-imaging Technology) equipped with an InGaAs camera C-RED2 (Firstlight) (λ ex = 808 nm, 1000 nm longpass (LP) filter (Edmund Optics)) camera to obtain the NIR-II image (exposure time: 50 ms). ImageJ software was used to process and analyze the images obtained in the experiment, and the DGC content in the sample was evaluated according to the fluorescence intensity of the sample.

Q: With “DGC: CTGF-targeting peptide-coated gold nanocluster: one Au26 gold nanocluster coated by eight DAG cyclic peptides, NIR-II and red fluorescence (CDAGRKQKC; also: cyclic peptide, ring not given here, eight peptides on one Au26 nanocluster via Cys Au-S bonds)” as the substance, how does the “stability in blood circulation” value read?
A: high stability during internal circulation
